Measured values published in US5534407.

Tests used:
[1] = test system: T4 gene 32 protein (Bacteriophage T4); conditions: renaturation t1/2; about 1% annealed after 60 min; 10 mM MgCl2, 50 mM NaCl, 37 C
[2] = test system: T7 gene 2.5 protein (Bacteriophage T7); conditions: renaturation t1/2 by agarose gel annealing assay; 10 mM MgCl2, 50 mM NaCl, pH 7.5, 37 C, no ATP; none >30,000 min
[3] = test system: RecA protein (Escherichia coli); conditions: renaturation t1/2 with about 500 uM ATP; little renaturation without ATP; 10 mM MgCl2, 50 mM NaCl, 37 C

Substance: 167-nt fragment (primer-extended to XmnI site) plus circular M13 mGP1-2 ssDNA
- activity [1]: 3000 min
- activity [2]: 1 min
- activity [3]: 60 min
